According to US20220409620A1, “REDUCING IMMUNOGENICITY TO PEGLOTICASE” (Horizon Pharma Rheumatology LLC, priority 2016, published 2022):

Assays:
[1] = test system: patients with refractory chronic gout; assay: Prior Phase 3 / pre-marketing pegloticase monotherapy trials (C0405 and C0406): response, infusion reactions, antibodies, PK; type: in vivo, human
Method: Improvements were more rapid in patients who received pegloticase 8 mg every 2 weeks compared to every 4 weeks and met the outcomes data of complete resolution of at least 1 tophus with no new or progressive tophi as assessed by blinded assessment of digital photographs of target tophi.
During the second 3 months of treatment, a lower proportion of pegloticase-treated patients experienced flares than patients receiving placebo. The incidence of flares during this period was lowest in the group receiving pegloticase 8 mg every 2 weeks than in the group who received pegloticase 8 mg every 4 weeks, as was the incidence of infusion-related reactions (26% with biweekly dosing vs. 40% with the every-4-week dosing regimen). Both infusion reactions (IRs) and gout flares were least common in patients with sustained urate-lowering responses to treatment and those who received bi-weekly treatment. In most pegloticase-treated patients with IRs, a loss of response to pegloticase (return to SUA >6 mg/dL) preceded the time of the first IR ( 20/21; 95%).
A relationship between the loss of urate-lowering efficacy, incidence of IRs, and high-titer antibody formation was identified in a post-hoc analysis of the pooled data from the Phase 3 studies. […] In one study, 69 (41%) of 169 patients receiving pegloticase developed high titer anti-pegloticase antibodies and subsequently lost response to the drug. In a second study, only 1 of 52 participants with high antibody titers maintained a response to pegloticase (serum urate <6 mg/dL). In addition, 60% participants with high titers developed IR. Anti-pegloticase antibodies were largely directed to the polyethylene glycol (PEG) portion of the molecule and altered the pharmacokinetic clearance of pegloticase, resulting in inhibition of SUA lowering activity. […] In addition, 31 of 52 (60%) patients with titers exceeding 1:2430 developed IRs. […] By preventing the formation of anti-pegloticase antibodies, a tolerizing dose regimen should prevent loss of response to the drug and decrease the incidence of IRs associated with it.
An AE that was not an unexpected AE was an infusion reaction and rarely anaphylaxis. Safety assessments in this study include an evaluation of the frequency and severity of IRs and anaphylaxis. During pre-marketing controlled clinical trials, infusion reactions were reported in 26% of patients treated with pegloticase 8 mg every 2 weeks. During pre-marketing controlled clinical trials, anaphylaxis was reported with a frequency of 6.5% of patients treated with pegloticase. For the purposes of this study, these events shall be defined as follows: […]
(§1) Methods: In the MIRROR OL trial, MTX (15 mg/week) was given orally 4 weeks prior to the first pegloticase dose and continued weekly, in combination with pegloticase 8 mg given intravenously every 2 weeks, for a treatment duration of up to 52 weeks. Pre-infusion samples were collected to measure MTX-PGs 1 to 5 in red blood cells at day 1, week 4, 8, 22, 24 and 36. […] Pegloticase concentrations in serum was measured using a validated enzymatic/fluorescence assay. The limit of quantification is 0.6 μg/mL. Anti-pegloticase/PEG IgG antibodies (ADA) were measured using a validated enzyme linked immunosorbent assay (ELISA). The analysis of MTX Polyglutamates was conducted by Exagen. The impact of MTX on pegloticase PK was evaluated by two methods: (1) Comparing pegloticase exposures (median Cmax and Cmin across visits) with MTX from the MIRROR OL trial to the observed levels in historical monotherapy Phase 3 studies (C0405 and C0406) (Lipsky et al., Arthritis Res Ther 16(2), 2014; Sundy et al., JAMA 306(7), 2011). Overlaying observed pegloticase concentrations with MTX against the 90% prediction band of pegloticase concentrations following monotherapy based on the population PK model from the Phase 3 data (Yue et al., ASCPT. Atlanta, 2010).

[2] = test system: subjects with refractory gout; details: after doses of 4 to 12 mg; from 11.1±0.6 mg/dL; cited from earlier work
[3] = Pegloticase serum concentrations (Cmax, Cmin), enzymatic/fluorescence assay, MIRROR OL; type: in vivo, human; details: with MTX Co-Treatment
Source text: Pharmacokinetic and Anti-drug Antibody Measurements: Serum samples for PK analysis of pegloticase were collected prior to the pegloticase infusion and after the end of infusion (prior to discharge) on Day 1 and at the Weeks 2, 4, 6, 8 and 36 Visits or weeks 2, 6, 14, 24, 36, for the open-label and randomized studies, respectively, and prior to the pegloticase infusion only at the Weeks 10, 14, 18, 22, 24 (open-label study); at the End of Pegloticase Infusions Visit (if applicable); and the Week 52/End of Study/Early Termination Visits. Visits for frequent sampling of a subset of subjects who consent for additional non-infusion visit PK sampling occurred at Weeks 1 and 7 or at week 21 for the open-label and randomized studies, respectively.
An enzymatic/fluorescence assay was used to quantitate pegloticase concentrations in serum. In the assay, pegloticase catalyzes the conversion of UA to allantoin, thus releasing hydrogen peroxide (H2O2) and carbon dioxide. In the presence of horseradish peroxidase, H2O2 reacts with a 1:1 stoichiometry with Amplex Ultra Red (Molecular Probes, Inc., Eugene, Oreg.) to generate the red fluorescence oxidation product, resorufin. The concentration of resorufin, which is determined by fluorometry, is proportional to the amount of active pegloticase present in the serum samples. The lower limit of detection established in previous studies has been determined to be 0.6 μg/mL.
as §1

[4] = Stability of pegloticase diluted in infusion bags; type: physicochemical; details: at 2° C. to 8° C. and at room temperature (20° C. to 25° C.)
Method: Pegloticase diluted in infusion bags was stable for 4 hours at 2° C. to 8° C. (36° F. to 46° F.) and at room temperature (20° C. to 25° C., 68° F. to 77° F.); however, the diluted solution was stored under refrigeration, not frozen, protected from light, and used within 4 hours of dilution. Before administration, the diluted solution of pegloticase was allowed to reach room temperature. Pegloticase in a vial or IV infusion fluid was never subjected to artificial heating.

pegloticase
Cmax, Median (Q1, Q3) ([1]; BQL: below 0.6 μg/mL): 1.51 (BQL, 2.48) μg/mL | Cmin, Median (Q1, Q3) ([1]; BQL: below 0.6 μg/mL): BQL (BQL, BQL) | Cmax BQL, % ([1]; Quantitation Limit 0.6 μg/mL): 29% | Cmax BQL, n/N ([1]; Quantitation Limit 0.6 μg/mL): 25/85 | Cmin BQL, % ([1]; Quantitation Limit 0.6 μg/mL): 77% | Cmin BQL, n/N ([1]; Quantitation Limit 0.6 μg/mL): 63/82 | plasma urate concentration (pUAc) after dosing, mean±SD [2]: 1.0±0.5 mg/dL | Cmax BQL, % ([3]; Quantitation Limit 0.6 μg/mL): 0% | Cmax BQL, n/N ([3]; Quantitation Limit 0.6 μg/mL): 0/14 | Cmin BQL, % ([3]; Quantitation Limit 0.6 μg/mL): 36% | Cmin BQL, n/N ([3]; Quantitation Limit 0.6 μg/mL): 5/14 | Cmax, Median (Q1, Q3) ([3]; serum, BQL: below 0.6 μg/mL): 2.11 (1.65, 2.59) μg/mL | Cmin, Median (Q1, Q3) ([3]; serum, BQL: below 0.6 μg/mL): 1.03 (BQL, 1.23) μg/mL | stability of pegloticase diluted in infusion bags [4]: 4 h
